From article PMC3076674 (Nature structural & molecular biology, 2011)

Biological target: T1, MED25 VP16-binding domain (VBD) (human, UniProt Q71SY5 390-553)
T1 sequence (looked up): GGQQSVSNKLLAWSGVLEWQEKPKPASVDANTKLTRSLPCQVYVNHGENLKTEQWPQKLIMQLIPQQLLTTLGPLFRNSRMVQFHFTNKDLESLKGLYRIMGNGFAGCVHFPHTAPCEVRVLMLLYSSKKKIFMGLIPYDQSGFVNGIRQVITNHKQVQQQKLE
Assay: ITC

B1: VP16 TAD (full-length transactivation domain, amino acids 411-490) (domain or fragment, Herpes simplex virus 1, UniProt P06492 411-490, looked up)
chain: STAPPTDVSLGDELHLDGEDVAMAHADALDDFDLDMLGDGDSPGPGFTPHDSAPYGALDMADFEFEQMFTDALGIDEYGG
  Kd: ~50 nM
